This is an account of results in the nanobody polyreactivity screen of Harvey et al. (2022).

A short description of the series: yeast display, Sf9 membrane polyspecificity reagent, FACS + sequencing; frameworks hold sequencing errors. The method, boiled down: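 Using colony PCR, genes from sorted yeast display clones were amplified, then sequenced on MiSeq at 2 × 250 and filtered by CDR length. The clones had been stained with 10% biotinylated, detergent-solubilized Sf9 membrane reagent for 1 hour at 4 °C and sorted by FACS into low and high (top ~1%) gates on anti-HA and streptavidin fluorescence. Polyreactivity labels come from the gate of origin.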
Turning to “QVQLVESGGGLVQAGGRLRFSCAASGNTFPHNTMGWYRKAPGKERELVSTNYADSVKGRFTISRDNAKNSVYLQMNSLKPEDTAVYYCHADGTFEYDYWGQGTQVTVSS”, the “polyreactivity (PSR sort gate)” value is given as “low polyreactivity”. The value for “QVQLVESGGGLVQAGGRLRISCAASGSIFKGYARGWSRQAPGKERELVAAISGSGTSTYYADSVKGRFTISRDNAKNTVYLQMNSLKPEDTAVYYCATGWYTVFSSRMYSWGQGTQVTVSS” was “high polyreactivity”; that for “QVQLVESGGGLVQAGGRLRISCAASGSIFKGYARGWSRQGPGKERELVAAISGSGTSTYYADSVKGRFTISRDNAKNTVYLQMNSLTPEDTAVYYCATGWYTVFSRRMYSWGQGTQVTVSS” was “high polyreactivity”.

Turning to “QVQLVESGGGLVQAGGRLRISCAASGSTFYFNAMGWYRQAPGKERELVAAITRGGSTYADSVKGRFTISRDNAKYTVYLQMNSMKPEDTAVYYCNAVYGVYDFIYWGQGTQVTVSS”, the “polyreactivity (PSR sort gate)” value is listed as “low polyreactivity”.

Consider “QVQLVESGGGLVQAGGRLRISCAASGTIFAYALGWYRPAPGKERELVAGISRRGGSTYYADSVKGRFTISRDNAKKTVYLQMKSLKPEDTAVYYCAADYYTLYPVYIKRYGYWGQGTQVTVSA”, for which the “polyreactivity (PSR sort gate)” value was “high polyreactivity”. The value for “QVQLVESGGGLVQAGGRLRLICAASGSTFRANIMRWSRQAPGKERELVAAITSGGGSTYYADSVKGRFTISRDNAKNTVYLQMNSLKPEDTAVYYCAARIYHDIDTRSYYWGQGTQVTVSS” was “high polyreactivity”. The value for “QVQLVESGGGLVQAGGRLRLICAAYGSTFSLYALGWYRQAPGKERELVADINSGGGTYYADSVKGRFTISRDNAKNTVYLQMNSVKPEDTAVYYCNAPVARGEASYYWGHGTQVTVSS” was “high polyreactivity”; that for “QVQLVESGGGLVQAGGRLRLSCAASASTIVGNAMGWYRQAPGKERELVATISNSGGRTYYADSVKGRFTISRDNSKYTVYLQMNSLKPEDTAVYYCNADIYPHDGYPWQGDYDYWGQGTQVTVSS” was “low polyreactivity”. The value for “QVQLVESGGGLVQAGGRLRLSCAASGFIIARNAMGWYRQAPGKERELVAASSASGGRTYYADSVKGRFTISRDNAKNTVYLQMNSLKPEDTAVYYCAARRDGRSGSFNYWGQGTQVTVSS” was “high polyreactivity”. Turning to “QVQLVESGGGLVQAGGRLRLSCAASGFNFHYYAMGWYRQAPGKERELVAAISWSSGRTYYADSVKGRFTISRDNEKNTVYLQMNSLKPEDTAVYYCAASSYNRGDYWGQGTQVTVSS”, the “polyreactivity (PSR sort gate)” value was “high polyreactivity”. The value for “QVQLVESGGGLVQAGGRLRLSCAASGFTFIRSAMGWYRQAPGKERELVAAISWSDDTTYYADSVKGRFTISRDNAKNTVYLQMNSLKPEDTAVYYCAAEVWYSYAEYDYWGQGTQVTVSS” was “high polyreactivity”; that for “QVQLVESGGGLVQAGGRLRLSCAASGFTFKRNAMGWYRQAPGKERELVAAITWSGGSTYYADSVKGRFTISRDNAKNTVYLQMNSLKPEDTAVYYCAALYRSRYYAGDYLGQGTQVTVSS” was “high polyreactivity”; that for “QVQLVESGGGLVQAGGRLRLSCAASGFTFLDYAMGWYRQAPGKERELVASISSSGGSTRFADSVKGRFTISRDNAKNTVYLQMNSLKPEDTAVYYCNADVDLFGAAYGYDYWGQGTQVTVSS” was “low polyreactivity”.

Consider “QVQLVESGGGLVQAGGRLRLSCAASGFTFNRNAMGWYRQAPGKERELVAAISDSGDNTYYADSVKGRFTISRDNAKNTVYLQMNSLKPEDTAVYYCATSFYGFSYHWFDYWGQGTQVTVSS”, for which the “polyreactivity (PSR sort gate)” value was “low polyreactivity”. The entry for “QVQLVESGGGLVQAGGRLRLSCAASGFTFPLYTMGWYRQEPGKERELVAAITWSGGSTYADSLKGRFTISRDNAKNTVYLQMNSLNPEDTEVYYCNRRLQPRGAGHNSWGQGTQVTVSS” is “high polyreactivity”; for “QVQLVESGGGLVQAGGRLRLSCAASGFTFRYYAMGWYRQAPGKERELVAAISGSGVSTYYADSVKGRFTISRDNAKNTVYLQMNSLKPEDTAVYYCAAGYPGHYYKYDYWGQGTQVTVSS” it is “high polyreactivity”; for “QVQLVESGGGLVQAGGRLRLSCAASGFTFSRNTLGWYRQAPGKERELVARITKRGGTTYYADSVKGRFTISRDNAKNTVYLQMNSLKPEDTAVYYCATVGQPSYRAPDGFNYWGQGTQVTVSS” it is “high polyreactivity”. The value for “QVQLVESGGGLVQAGGRLRLSCAASGFTFYDNAMGWYRQAPGKERELVAGINSGDSTFYAVSVKGRITISRDNAKNTVYLQMTSLKPEDTGFYYGAADWAWLQWSYDYWGQGTQVTVSS” was “low polyreactivity”; that for “QVQLVESGGGLVQAGGRLRLSCAASGFTFYYYAMGWYRQAPGKEREMVAAISRSGGSTYYADSVKGRFTISRDNAKNTVYLQMNSLKPEDTAVYYCNTLRRTWFQENDYWGQGTQVTVSS” was “high polyreactivity”; that for “QVQLVESGGGLVQAGGRLRLSCAASGFTIRLYTMGWYRQAPGKERELVAAITYSGDSTYYADSVKGRFTISRDNAKNTVYLQMNSLKPVDTAVYYCAARKYYARYYWGQGTQVTVSS” was “high polyreactivity”. The entry for “QVQLVESGGGLVQAGGRLRLSCAASGFTLVGYAMGWSRQAPGKERELVAAISSGGGSTYYADSVKGRFTISRDNAKNTVYLQMNSLKPEDTAVYYCAVYVDYYGYGYWGQGTQVTVSS” is “high polyreactivity”; for “QVQLVESGGGLVQAGGRLRLSCAASGGTFRLYTMASYRQAPGKERELVAGISSSSGSTYYADSVKGRFTISRDNAKNTVYLQMNSLKPEDTAVYYCAAYWPRSRYDYWGQGTQVTVSS” it is “high polyreactivity”. For “QVQLVESGGGLVQAGGRLRLSCAASGISFRFNAMGWYRQAPGKEREFVAAITYSGDSTYDADSVMGRFTISRDNAKNTVYLQKNSLKPEDTAVYYCAADYYAIYRRIFYYWGQGTQVTVSS”, the “polyreactivity (PSR sort gate)” value is recorded as “low polyreactivity”. The value for “QVQLVESGGGLVQAGGRLRLSCAASGITFFWNAMGWYRQAPGKERELVAAISSGAGTTYADSVKGRFTISRDNAKNTVYLQMNSLKPEDTAVYYCAKRVDAYGWWGRSSGVLSDYWGQGTQVTVSS” was “low polyreactivity”. The entry for “QVQLVESGGGLVQAGGRLRLSCAASGITFLNYAMGWYRPAPRKERELVAAISWSGGRTYYADSVKGRFTISRDNAKNTVFLQMNSLKPEDNAVYYCAADRGVNSYGYWGQGTQVTVSS” is “high polyreactivity”.

With “QVQLVESGGGLVQAGGRLRLSCAASGITFRSYAMGWYRQAPGKESELVAAIRSGGSTSYADSVKGRFTISRDNAKNTVYLQMNSLKPEDTAVYYCAAGGYVPLPDMTFWKFGYWGQGTQVTVSS”, the “polyreactivity (PSR sort gate)” value is “low polyreactivity”. With “QVQLVESGGGLVQAGGRLRLSCAASGITFRYYAMGWYRQAPGKERELVAAITRSGTSTYYADSVKGRFTISRDNAKNTVYLQMNSLKPEDTAVYYCNAEYYHSSTGDDFDYWGQGTQVTVSS”, the “polyreactivity (PSR sort gate)” value is “low polyreactivity”. The entry for “QVQLVESGGGLVQAGGRLRLSCAASGITFYHYAMGWYRQAPGKERELVAAITRSGGRTYYAVSVKGRFTISRDTANNTVYVEMYSLKPEVTAVYYSAARWQKTAGRYYYWGQGTQVTGSS” is “high polyreactivity”.

As to “QVQLVESGGGLVQAGGRLRLSCAASGITFYRYAMGWYIQAPGKERELVASISSRGSSSYYADSVKGRFTISRDNAKNTVYLQRNSLKPEDTAVYYCAKSRGSRGFVASTYNYWGQGTQVTVSS”, the “polyreactivity (PSR sort gate)” value is listed as “high polyreactivity”.

Take “QVQLVESGGGLVQAGGRLRLSCAASGLIFYDNMGWYRQPPGKERELVAAITWSGGSTYYADSVKGRFTISRDNAKNTVYLQMNSLKPEDTAVSYCNADLDSGYGSYDYWGQGTQVTVSS”: the “polyreactivity (PSR sort gate)” value was “low polyreactivity”. The value for “QVQLVESGGGLVQAGGRLRLSCAASGLIIEWYAMGWFRQAPGKERELVAAITGRGSSTFYADSVKGRFTISRDNAKNTVYLQMNSLKPEDTGVYYCAVATVKQYRSDYWGQGTQVTVSS” was “low polyreactivity”; that for “QVQLVESGGGLVQAGGRLRLSCAASGLIIKLYAMGWYRQAPGKERELVAAITDRGGSTYYADSVKGRFTISRDNAKNTVYLQMNSLKPEDTAVYYCAAPYAGWRDGGDYWGQGTQVTVSS” was “low polyreactivity”; that for “QVQLVESGGGLVQAGGRLRLSCAASGLILSSNALGWYRQAPGKARELVAAITWDGDRTYADSVKGRFTISRDNAKNTVYLQQNSLKPEDTAVYYCAADKQYYWYDWSYEYWGQGTQVTVSW” was “low polyreactivity”. The value for “QVQLVESGGGLVQAGGRLRLSCAASGNTFGPYDMGWYRQAPGKERELVAGITSGGSTYYADSVKGRFTISRDNAKITVYLQMNSLKPEDTAVYYCAADYFLWVYWYDYWGQGTQVTVSS” was “high polyreactivity”; that for “QVQLVESGGGLVQAGGRLRLSCAASGNTFYLNAIGWYRQAPGKERELVAAITIRGDSTYYADSVKGRFTISRDNAKNTVYLQMISLKPEDTAVYSCAAPWAWNTGYRVYYGGQGTQVTVSS” was “high polyreactivity”; that for “QVQLVESGGGLVQAGGRLRLSCAASGNTLRYYAMGWYRQAPGKERELVAAISESGGRTYYADSVKGRFTISRDNAKNTVYLQMNSLKPEDTAVYYCAASRWGGTWWYGYNYWGQGTQVTVSS” was “high polyreactivity”.

As to “QVQLVESGGGLVQAGGRLRLSCAASGRIFDTYAMGWYRQAPGKERELVASINWSAGSTYYADSVKGRFTISRDNAMNTVYLQMNSLKPEDTAVYYCATYSSYYWQSSYVYWEFDYWGQGTQVTVSS”, the “polyreactivity (PSR sort gate)” value is “high polyreactivity”. The entry for “QVQLVESGGGLVQAGGRLRLSCAASGRIFGVNAMGWYRQAPGKERELVAVISSGGSTYYADSVKGRFTISRDNAKNTVYLQMNSLKPEDTAVYYCNAVVGRWFPYNLSDYWGQGTQVTVSS” is “low polyreactivity”. The entry for “QVQLVESGGGLVQAGGRLRLSCAASGRIFKDNAMGWYRQAPGKERELVAAISSGASTSYADSVKGRFTISRDNAKNTVYLQMNSLKPEDTAVYYCNRGGDLYYPGWLFDYWGQGTQVTVSS” is “low polyreactivity”; for “QVQLVESGGGLVQAGGRLRLSCAASGRIFKTYAMGWYRQAPGKERELVAAISIRGGSTYYAVSVKGRFTISRDNAKNTVYLQMNSLKPEDTAVYYCNALYGRQIVDYDYWGQGTQVTVSS” it is “high polyreactivity”; for “QVQLVESGGGLVQAGGRLRLSCAASGRIFNKYVMGWYRQAPGKERELVAAISGRGGSTYYADSVKGRFTISRDYEKNTVYLQMNSLKPEDSAVYYCAAEYQGRRMYYWGQGTQVTVSS” it is “high polyreactivity”.
